B1: Azoarcus group I ribozyme (parent)
chain: GUGCCUUGCGCCGGGAAACCACGCAAGGGAUGGUGUCAAAUUCGGCGAAACCUAAGCGCCCGCCCGGGCGUAUGGCAACGCCGAGCCAAGCUUCGGCGCCUGCGCCGAUGAAGGUGUAGAGACUAGACGGCACCCACCUAAGGCAAACGCUAUGGUGAAGGCAUAGUCCAGGGAGUGGCGAAAGUCACACAAACCGG

Reverse-splicing fitness data for 83 variants are collected here from the RNAGym collection of RNA variant scans (doi:10.1093/molbev/msab373).

The series covers variants of B1. In words: reverse-splicing fitness (ratio to wild type); higher = more active; in vitro selection; Mg2+ level not given. The method in brief: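 An in vitro group I ribozyme library with randomized positions was T7-transcribed and gel-purified. In triplicate, 10 pmol RNA in EPPS pH 7.5 was reacted with 50 pmoles of a 30-nt RNA substrate for 1 h at 37 °C across several added MgCl2 levels (1–48 mM), then stopped with EDTA. Products were reverse transcribed from a substrate-complementary primer, PCR-amplified and sequenced (HiSeq 4000). Fitness is a variant's read proportion after selection over that before, normalised to wild type.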
With C82A A120C A145U U176C, the reverse-splicing fitness turned out to be 0.0639.
For C82A A120C A145U U176A the value was 0.0383; for C82A A120C A145U U176G, 0.00885.
Then C82A A120C A145U C150G C169U U176G, with 0.00519; and C82A A120C A145U C150G C169U U176A, with 0.00709.
For C82A A120C A145U C150G C169U U176C the value was 0.00999; for C82A A111U C150A C169U U176G, 0.00835.
In the case of C82A A111U C150A C169U U176C, the reverse-splicing fitness is 0.0171.
Then C82A A111U C150A C169U U176A, with 0.0167; and C82A A120C C150A C169G U176G, with 0.00627; and C82A A120C C150A C169G U176C, with 0.0258.
For the variant C82A A120C C150A C169G U176A, the reverse-splicing fitness worked out at 0.021.
As to C82A A111U C150G C169U U176C, the reverse-splicing fitness worked out at 0.0139.
Take C82A A111U C150G C169U U176A: the reverse-splicing fitness turned out to be 0.00699.
For C82A A111U C150G C169U U176G the value was 0.00599; for C82A A120C A145G C150U C169A U176A, 0.0169; for C82A A120C A145G C150U C169A U176G, 0.00774.
Then C82A A120C A145G C150U C169A U176C, with 0.0184; and C82A A120C C150G C169U U176A, with 0.00617.
In the case of C82A A120C C150G C169U U176G, the reverse-splicing fitness came out at 0.00629.
As for C82A A120C C150G C169U U176C, the reverse-splicing fitness is 0.0113.
On to C82A A111U C150G, for which the reverse-splicing fitness was 0.0198.
Then C82A A111U C150U, with 0.135; and C82A A111U C150A, with 0.0266; and C82A A120G A145C C150A C169A U176G, with 0.00399.
For C82A A120G A145C C150A C169A U176C, the reverse-splicing fitness was found to be 0.00527.
Take C82A A120G A145C C150A C169A U176A: the reverse-splicing fitness turned out to be 0.0126.
For C82A A111U A145U U176A the value was 0.0937.
For C82A A111U A145U U176C, the reverse-splicing fitness came out at 0.134.
Then C82A A111U A145U U176G, with 0.0281; and C82A A120C A145G C150A C169U, with 0.0123.
In the case of C82A A120C A145G C150A C169G, the reverse-splicing fitness turned out to be 0.00977.
Then C82A A120C A145G C150A C169A, with 0.0111.
Turning to C82A A120C A145C C150G U176G, the reverse-splicing fitness came out at 0.00331.
Then C82A A120C A145C C150G U176A, with 0.0063.
For C82A A120C A145C C150G U176C the value was 0.0119.
Then C82A A120C A145C U176C, with 0.0514; and C82A A120C A145C U176G, with 0.00935; and C82A A120C A145C U176A, with 0.0359.
As to C82A A120C C150U C169A, the reverse-splicing fitness is 0.0105.
For C82A A120C C150U C169G the value was 0.00925.
Then C82A A120C C150U C169U, with 0.0173; and C82A A120C A145C C150G C169G U176C, with 0.00971.
For C82A A120C A145C C150G C169G U176A the value was 0.00969.
Regarding C82A A120C A145C C150G C169G U176G, the reverse-splicing fitness was 0.00575.
In the case of C82A A111U C150G C169G U176A, the reverse-splicing fitness was 0.00782.
For C82A A111U C150G C169G U176G the value was 0.00641; for C82A A111U C150G C169G U176C, 0.00482.
Then C82A A120C A145C C150G, with 0.0192; and C82A A120C A145C C150A, with 0.0144.
Regarding C82A A120C A145C C150U, the reverse-splicing fitness was found to be 0.035.
Then C82A A120C A145G C150U C169G U176G, with 0.00573.
Then C82A A120C A145G C150U C169G U176A, with 0.0144.
Then C82A A120C A145G C150U C169G U176C, with 0.0202; and C82A A120C A145G C150G C169U U176A, with 0.0135.
On to C82A A120C A145G C150G C169U U176C, for which the reverse-splicing fitness was determined as 0.015.
Then C82A A120C A145G C150G C169U U176G, with 0.00779; and C82A A120C A145C C169U, with 0.0188.
Then C82A A120C A145C C169G, with 0.0102; and C82A A120C A145C C169A, with 0.00831; and C82A A120C C169U, with 0.0186.
Take C82A A120C C169G: the reverse-splicing fitness amounted to 0.00961.
In the case of C82A A120C C169A, the reverse-splicing fitness came out at 0.0104.
For C82A A120C A145C C150G C169U U176C the value was 0.0105; for C82A A120C A145C C150G C169U U176G, 0.00498.
For C82A A120C A145C C150G C169U U176A the value was 0.00681; for C82A A120C A145G C169A U176A, 0.0242.
Then C82A A120C A145G C169A U176C, with 0.034.
With C82A A120C A145G C169A U176G, the reverse-splicing fitness is 0.00473.
Then C82A A120C A145U C150A C169A, with 0.0105.
For C82A A120C A145U C150A C169U the value was 0.00955; for C82A A120C A145U C150A C169G, 0.00904.
Then C82A A120C A145C C150U C169U U176C, with 0.00988; and C82A A120C A145C C150U C169U U176A, with 0.0127; and C82A A120C A145C C150U C169U U176G, with 0.00452.
As to C82A A120C A145C C150A C169G U176G, the reverse-splicing fitness came to 0.00625.
For C82A A120C A145C C150A C169G U176A the value was 0.032; for C82A A120C A145C C150A C169G U176C, 0.0244.
Then C82A A120C A145U C150G C169G, with 0.00692; and C82A A120C A145U C150G C169A, with 0.0101; and C82A A120C A145U C150G C169U, with 0.0114.
Then C82A A111U C150A U176A, with 0.0197.
As for C82A A111U C150A U176G, the reverse-splicing fitness is 0.00995.
